# T1: fibroblast activating protein alpha (FAPα), cell surface-bound on FAP+ cells (FAP over-expressing HT1080 … (human, UniProt Q12884 1-760))
# T1 construct: whole, on cells; Target of the flow cytometry and of the immunohistology; also called cell membrane expressed FAP
# T1 sequence (looked up): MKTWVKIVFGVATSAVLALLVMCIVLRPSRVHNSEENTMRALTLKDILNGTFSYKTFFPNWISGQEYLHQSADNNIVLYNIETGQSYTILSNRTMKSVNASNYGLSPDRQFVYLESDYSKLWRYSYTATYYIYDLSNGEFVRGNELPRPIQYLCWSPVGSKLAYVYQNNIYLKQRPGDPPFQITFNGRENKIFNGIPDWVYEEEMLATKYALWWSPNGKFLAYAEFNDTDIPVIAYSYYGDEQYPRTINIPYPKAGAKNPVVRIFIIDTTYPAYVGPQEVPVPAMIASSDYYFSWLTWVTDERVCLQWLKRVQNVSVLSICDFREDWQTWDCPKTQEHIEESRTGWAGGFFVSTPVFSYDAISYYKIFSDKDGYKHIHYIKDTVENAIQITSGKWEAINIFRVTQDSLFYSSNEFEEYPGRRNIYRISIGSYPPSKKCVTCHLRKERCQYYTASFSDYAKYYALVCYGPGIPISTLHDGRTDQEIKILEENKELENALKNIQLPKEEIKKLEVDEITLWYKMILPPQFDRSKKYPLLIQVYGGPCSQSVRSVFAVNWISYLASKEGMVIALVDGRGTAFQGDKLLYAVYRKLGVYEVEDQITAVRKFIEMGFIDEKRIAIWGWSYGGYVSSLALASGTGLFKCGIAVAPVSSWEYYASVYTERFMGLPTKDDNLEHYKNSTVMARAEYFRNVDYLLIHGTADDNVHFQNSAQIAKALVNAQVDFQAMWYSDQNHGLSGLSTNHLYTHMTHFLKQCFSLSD
# T2: fibroblast activating protein alpha (FAPα), purified and immobilised (ELISA wells) (human, UniProt Q12884 27-760, limits assumed)
# T2 construct: also called purified FAP; immobilized FAP
# T2 sequence (looked up): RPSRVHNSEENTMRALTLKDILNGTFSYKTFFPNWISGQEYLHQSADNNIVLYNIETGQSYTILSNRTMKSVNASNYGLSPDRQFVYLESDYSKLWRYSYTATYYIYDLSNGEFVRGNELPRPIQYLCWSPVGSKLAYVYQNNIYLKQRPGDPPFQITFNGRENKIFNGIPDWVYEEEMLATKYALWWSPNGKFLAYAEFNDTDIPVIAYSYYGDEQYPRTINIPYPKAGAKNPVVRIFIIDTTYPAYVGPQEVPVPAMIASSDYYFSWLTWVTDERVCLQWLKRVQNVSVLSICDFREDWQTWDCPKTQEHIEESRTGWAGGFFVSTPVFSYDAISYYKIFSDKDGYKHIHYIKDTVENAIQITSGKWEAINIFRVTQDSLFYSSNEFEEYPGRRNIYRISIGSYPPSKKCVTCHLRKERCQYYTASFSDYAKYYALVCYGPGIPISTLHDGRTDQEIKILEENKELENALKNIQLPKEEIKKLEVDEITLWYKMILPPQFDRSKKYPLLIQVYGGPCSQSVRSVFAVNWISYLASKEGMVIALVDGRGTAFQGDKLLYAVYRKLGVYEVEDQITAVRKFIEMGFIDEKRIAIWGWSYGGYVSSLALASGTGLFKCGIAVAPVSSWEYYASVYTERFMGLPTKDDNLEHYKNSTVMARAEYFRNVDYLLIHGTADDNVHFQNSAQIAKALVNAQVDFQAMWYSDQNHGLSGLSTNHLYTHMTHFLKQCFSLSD
# B1: scFv #50 in minibody format (bivalent) (other)
# chain: QVQLVESGGGLVQPGGSLRLSCAASGFTFSNYWMSWVRQAPGKGLEWVANIKQDGSEKYYVDSVKGRFTISRDNAKNSLYLQMNSLRAEDTAVYYCARGSLCTDGSCPTIGPGPNWGQGTLVTVSSAPTKAPKLEEGEFSEARVDIQMTQSPSSLSASTGDRVTITCRASQDISSYLAWYQQAPGKAPHLLMSGATTLQTGVPSRFSGSGSGTDFTLTITSLQSEDFATYYCQQYYIYPPTFGQGTRVEIKRTVAAPSVFAA
# notes: Minibody: bivalent homodimeric scFv derivative; also called scFv #50 (as bivalent in minibody format); not shown: hinge-linker-CH3-cmyc-HIS6 of the minibody
# B2: scFv F19 (parental murine scFv of the monoclonal antibody F19) (scFv, V domains shown)
# VH: EVQLQQSGPELVKPGASVKMSCKTSRYTFTEYTIHWVRQSHGKSLEWIGGINPNNGIPNYNQKFKGRATLTVGKSSSTAYMELRSLTSEDSAVYFCARRRIAYGYDEGHAMDYWGQGTSVTVSS
# VL: DIVMSQSPSSLAVSVGEKVTMSCKSSQSLLYSRNQKNYLAWFQQKPGQSPKLLIFWASTRESGVPDRFTGSGFGTDFNLTISSVQAEDLAVYDCQQYFSYPLTFGAGTKLELK
# B3: chimeric scFv III43 (murine VH F19 / human VL III43) (scFv, V domains shown)
# VH: B2 VH
# VL: DIQMTQSPSSLSASTGDRVTITCRASQDISSYLAWYQQAPGKAPHLLMSGATTLQTGVPSRFSGSGSGTDFTLTISSLQAEDVAVYYCQQYYRTPFTFGQGTKLEIKR
# B4: scFv #18 (VH #18, IgG; VL III43; murine HCDR3 F19) (scFv)
# scFv: QVQLVQSGAELKKPGSSMKVSCKASGDTFSTYSINWVRQAPGQGLEWMGVINPSGGSTSYAQKFQGRVTMTRDTSTSTVYMELSSLRSEDTAVYYCARRRIAYGYDEGHAMDYWGQGTLVTVSSASTKGPKLEEGEFSEARVDIQMTQSPSSLSASTGDRVTITCRASQDISSYLAWYQQAPGKAPHLLMSGATTLQTGVPSRFSGSGSGTDFTLTISSLQAEDVAVYYCQQYYRTPFTFGQGTKLEIKRTVAAPSVFAA
# notes: Humanised monovalent scFv, detected through the c-myc tag with 9E10; also called clone #18; VH18 YOL III43; not shown: c-myc and HIS6 tags (pOPE101), or pIII in the screening ELISA
# B5: scFv #34 (VH #34, IgG; VL III43; murine HCDR3 F19) (scFv)
# scFv: QVQLQQSGAEVKKPGSSVKVSCKASGGTFSTHTINWVRQAPGQGLEWMGGIAPMFGTANYAQKFQGRVTITADKSTSTAYMEMSSLRSDDTAVYYCARRRIAYGYDEGHAMDYWGQGTLVTVSSASTKGPKLEEGEFSEARVDIQMTQSPSSLSASTGDRVTITCRASQDISSYLAWYQQAPGKAPHLLMSGATTLQTGVPSRFSGSGSGTDFTLTISSLQAEDVAVYYCQQYYRTPFTFGQGTKLEIKRTVAAPSVFAA
# notes: Humanised monovalent scFv, detected through the c-myc tag with 9E10; also called clone #34; VH34YOL III43; not shown: c-myc and HIS6 tags (pOPE101), or pIII in the screening ELISA
# B6: Mb #34 (minibody of scFv #34) (other)
# chain: B5 scFv
# notes: also called scFv #34-minibody; not shown: hinge-linker-CH3-cmyc-HIS6 of the minibody
# B7: scFv #13 in minibody format (bivalent) (other)
# chain: QVQLVESGGTLVQPGGSLRLSCAASGFTFSSYAMSWIRQAPGKGLEWVSGISASGGYIDYADSVKGRVTISRDNSKNMAYLQMSSLRAEDTALYYCAKGGNYQMLLDHWGQGTLVTVSSASTKGPKLEEGEFSEARVDIQMTQSPSSLSASTGDRVTITCRASQDISSYLAWYQQAPGKAPHLLMSGATTLQTGVPSRFSGSGSGTDFTLTITSLQSEDFATYYCQQYYIYPPTFGQGTRVEIKRTVAAPSVFAA
# notes: also called scFv #13 (as bivalent in minibody format); scFv #13 (minibody format); not shown: hinge-linker-CH3-cmyc-HIS6 of the minibody
# Key:
# [1] = target: T1, fibroblast activating protein alpha …; assay: binding to FAP+ cells, cell analyser, half maximal saturation
# [2] = target: T1, fibroblast activating protein alpha …; assay: flow cytometry saturation on FAP expressing HT1080 cells; SC50
# [3] = target: T2, fibroblast activating protein alpha …; assay: sandwich ELISA, c-myc tag detection; SC50 = concentration of half maximal saturation of binding
# [4] = target: T1, fibroblast activating protein alpha …; assay: flow cytometry saturation on FAP-overexpressing cells; half maximal saturation
Binder,EC50 [1],EC50 [2],EC50 [3],EC50 [4]
B1,32 nM,–,–,–
B2,–,20 nM,20 nM,–
B3,–,–,20 nM,–
B4,~6 nM,6 nM,–,–
B5,~6 nM,6 nM,–,–
B6,–,–,–,2 nM
B7,8 to 12 nM,–,–,–
